Test results from patent US6576442 (SUGEN, dated 2003).

Target: T1, PYK-NN (PYK2 aa 2-285) fused to the LexA DNA binding domain (UniProt P0A7C2 1-202; Q14289 2-285)
T1 construct: Yeast two-hybrid bait
Experiment: yeast two-hybrid with heterologous baits
Description: The yeast strain L40 containing the reporter genes HIS3 and β-gal under control of upstream LexA-binding site, was used as a host for the two-hybrid screening. […] Yeast strain that express the LexA-PYKN fusion protein was transfected with human brain cDNA library (Clontech #HL404AB) fused to GAL4 transcriptional activation domain. Transformants were plated on agar selection medium lacking Uracil (Ura-), Tryptophane (Trp-), Leucine (Leu-) and Histidine (His-). Resulting colonies were isolated and retested for growth on -Ura-Trp-Leu-His plates and for β-galactosidase activity. Plasmid DNA was purified from colonies that were His+, β-gal+ and used for retransformation of yeast strains expressing heterologous baits to determine the specificity of the interaction.
The yeast two-hybrid system was used to identify proteins that interact with the amino-terminal domain of PYK2. The N-terminal domain of PYK2 was fused to the LexA DNA binding domain and screened a human brain cDNA library. […] The specificity of the interaction was further determined by transformation of this clone into a yeast strain expressing heterologous baits. An interaction was detected in yeast strain expressing either the PYK-N terminal domain, or a shorter version of PYK-N that was missing 48 amino acids from its C-terminal end.

T1 sequence (P0A7C2 other isoform, or with tags, fused parts or gaps limits assumed): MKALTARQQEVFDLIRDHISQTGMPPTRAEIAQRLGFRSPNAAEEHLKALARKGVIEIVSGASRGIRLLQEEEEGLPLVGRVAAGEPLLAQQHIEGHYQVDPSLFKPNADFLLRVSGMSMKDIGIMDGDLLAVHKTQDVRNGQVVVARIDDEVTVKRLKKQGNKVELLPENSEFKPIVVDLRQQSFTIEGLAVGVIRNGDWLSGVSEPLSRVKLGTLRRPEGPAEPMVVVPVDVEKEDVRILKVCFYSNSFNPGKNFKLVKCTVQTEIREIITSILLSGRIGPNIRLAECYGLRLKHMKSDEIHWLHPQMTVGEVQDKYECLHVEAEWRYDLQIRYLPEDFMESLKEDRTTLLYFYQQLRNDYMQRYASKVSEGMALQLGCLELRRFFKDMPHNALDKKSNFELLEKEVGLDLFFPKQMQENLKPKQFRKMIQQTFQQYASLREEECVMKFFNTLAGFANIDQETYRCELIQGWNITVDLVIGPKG

binding result: no binding
B1: original two hybrid clone containing amino acids 627-975 of hrdgB1, fused to the GAL4 transcriptional activation domain (other, not shown: large carriers)
chain: VKLRNVTANHRANDVIAAEDGPQVLVGRFMYGPLDMVALTGEKVDILVMAEPSSGRWVHLDTEITNSSGRITYNVPRPRRLGVGVYPVKMVVRGDQTCAMSYLTVLPRGMECVVFSIDGSFAASVSIMGSDPKVRPGAVDVVRHWQDLGYMILYITGRPDMQKQRVVSWLSQHNFPQGMIFFSDGLVHDPLRQKAIFLRNLMQECFIKISAAYGSTKDISVYSVLGLPASQIFIVGRPTKKYQTQCQFLSEGYAAHLAVLEASHRSRPKKNNSRMILRKGSFGLHAQPEFLRKRNHLRRTMSVQQPDPPAANPKPERAQSQPESDKDHERPLPALSWARGPPKFESVP
notes: The printed end may count the stop codon; also called GAL10-rdgB1
